This note sets out measurements from US9669057.

The test addresses mouse CD40 (mouse) (UniProt P27512). The experiment in a line: cell-based or functional assay.
UniProt P27512, sequence (P27512 20-289): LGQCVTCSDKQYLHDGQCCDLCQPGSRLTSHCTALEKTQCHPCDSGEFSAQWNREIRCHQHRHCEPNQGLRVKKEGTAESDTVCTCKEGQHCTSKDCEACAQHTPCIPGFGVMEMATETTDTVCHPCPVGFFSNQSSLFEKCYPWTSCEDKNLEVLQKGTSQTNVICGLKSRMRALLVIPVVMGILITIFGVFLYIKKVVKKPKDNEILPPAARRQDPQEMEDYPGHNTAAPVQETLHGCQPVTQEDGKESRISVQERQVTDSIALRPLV

The substance anti-mouse CD40 mAb (HM40-3) (antibody) returned a fold increase in frequency of cytoplasmic IL-10+ adult blood B cells, 48 h culture against 5 h L+PIM culture of 6 to 9 fold and a reduction of LPS-induced IL-10 secretion by spleen B cells, ELISA of culture supernatant of over 68%.
